Assay results as given in US20150266977A1 (AbbVie / Abbott, published 2015).
Residue numbers refer to the chain shown, from its start.

B1: MSL10-AM9 (antibody, V domains shown)
VH: EVQLVESGGGLVQPGRSLRLSCAASGFTFDDYALHWVRQAPGKGLEWVSGIGWDDDMIDYADSVKGRFTISRDNAKNSLYLQMNSLRVEDTALYYCAGNNRGYGGLDVWGQGTTVTVSS
VL: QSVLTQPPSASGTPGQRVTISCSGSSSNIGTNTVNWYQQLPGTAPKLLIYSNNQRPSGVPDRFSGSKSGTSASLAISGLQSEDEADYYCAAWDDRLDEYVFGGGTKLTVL
B2: MSL10-AM3 (antibody, V domains shown)
VH: B1 VH with D55E
VL: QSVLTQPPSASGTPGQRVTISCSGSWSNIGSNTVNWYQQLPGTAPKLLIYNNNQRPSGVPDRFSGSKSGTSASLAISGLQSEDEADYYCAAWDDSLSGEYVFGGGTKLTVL
B3: MSL10-AM7 (antibody, V domains shown)
VH: B1 VH with D30E, D54N, M57E, A75S
VL: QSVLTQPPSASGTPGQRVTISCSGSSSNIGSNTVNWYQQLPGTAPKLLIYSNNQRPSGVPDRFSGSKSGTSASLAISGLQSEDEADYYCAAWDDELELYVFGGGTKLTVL
B4: MSL10-AM1 (antibody, V domains shown)
VH: B1 VH with G52N, D54E, D55G, M57D, N100S
VL: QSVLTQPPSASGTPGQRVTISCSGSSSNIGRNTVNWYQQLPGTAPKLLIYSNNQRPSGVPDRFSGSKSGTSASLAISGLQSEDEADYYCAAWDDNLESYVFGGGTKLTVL
B5: MSL10-AM11 (antibody, V domains shown)
VH: B1 VH with G52S, D54H, D55G, M57F
VL: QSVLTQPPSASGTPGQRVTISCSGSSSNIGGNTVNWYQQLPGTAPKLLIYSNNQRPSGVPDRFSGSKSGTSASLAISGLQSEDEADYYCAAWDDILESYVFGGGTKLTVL
B6: MSL10-AM8 (antibody, V domains shown)
VH: B1 VH with D30E, D55R, M57F, N100K, R101I
VL: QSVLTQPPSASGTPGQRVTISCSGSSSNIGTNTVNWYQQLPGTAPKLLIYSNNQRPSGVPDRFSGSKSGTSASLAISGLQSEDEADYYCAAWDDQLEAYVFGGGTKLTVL
B7: MSL10-AM2 (antibody, V domains shown)
VH: B1 VH with D54E, N100S
VL: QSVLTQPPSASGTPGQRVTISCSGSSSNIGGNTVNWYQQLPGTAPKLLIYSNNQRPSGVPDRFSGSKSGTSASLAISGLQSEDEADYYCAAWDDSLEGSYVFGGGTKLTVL
B8: MSL10-AM10 (antibody, V domains shown)
VH: B1 VH with D30S, G52S, D54Y, D55G, M57D, N100I
VL: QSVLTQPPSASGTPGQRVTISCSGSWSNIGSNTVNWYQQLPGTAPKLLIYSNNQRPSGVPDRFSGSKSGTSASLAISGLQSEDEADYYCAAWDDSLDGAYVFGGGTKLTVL
B9: MSL10-AM6 (antibody, V domains shown)
VH: B1 VH with D31Q, G52N, D55G, M57Y, N100I
VL: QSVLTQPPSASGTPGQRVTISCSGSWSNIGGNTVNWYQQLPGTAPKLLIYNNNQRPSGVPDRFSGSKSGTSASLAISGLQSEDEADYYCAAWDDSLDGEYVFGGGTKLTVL
B10: MSL10-AM4 (antibody, V domains shown)
VH: B1 VH with D30E
VL: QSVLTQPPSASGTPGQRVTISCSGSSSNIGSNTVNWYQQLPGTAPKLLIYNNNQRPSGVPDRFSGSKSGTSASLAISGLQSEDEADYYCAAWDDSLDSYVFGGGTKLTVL
B11: AE10-6-AM6 (antibody, V domains shown)
VH: EVQLVQSGAEVKKPGASVKVSCKVSGYTLSELSMHWVRQAPGKGLEWMGGFDPEGGETIYAQKFQGRVTMTEDTSTDTAYMELSSLRSEDTAVYYCATDTEGYWEKFFQHWGQGTLVTVSS
VL: QAVVTQEPSLTVSPGGTVTLTCGSSTGAVTIDHYPYWFQQKPGQAPRTLISDTDDKHSWTPARFSGSLLGGKAALTLSGAQPEDEAEYYCLLDYGGTFVFGGGTKLTVL
notes: converted into IgG; also called rHC + LC S4 clone 119
B12: AE10-6-AM7 (antibody, V domains shown)
VH: B11 VH with S30T, G55D, E101V
VL: B11 VL with A28T, T97R
notes: converted into IgG; also called rHC + LC S4 clone 131
B13: AE10-6-AM8 (antibody, V domains shown)
VH: B11 VH with M34I, G55D, T100S, E101A, E105Y
VL: B11 VL with T97S
notes: converted into IgG

biological target: T1, recombinant mouse sclerostin (mouse, UniProt Q99P68 24-211); test: SPR
T1 construct: also called ms sclerostin; murine sclerostin
T1 sequence (looked up): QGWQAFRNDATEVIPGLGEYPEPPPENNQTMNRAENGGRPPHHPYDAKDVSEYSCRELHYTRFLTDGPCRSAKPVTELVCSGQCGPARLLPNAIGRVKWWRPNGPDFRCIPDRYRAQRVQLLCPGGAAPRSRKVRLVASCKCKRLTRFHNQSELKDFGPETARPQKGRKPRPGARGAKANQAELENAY

| Binder | binding result |
| --- | --- |
| B1 | no binding |
| B2 | no binding |
| B3 | no binding |
| B4 | no binding |
| B5 | no binding |
| B6 | no binding |
| B7 | no binding |
| B8 | no binding |
| B9 | no binding |
| B10 | no binding |

biological target: T2, recombinant rat sclerostin (rat, UniProt Q99P67 24-213, limits assumed); test: SPR
T2 sequence (looked up): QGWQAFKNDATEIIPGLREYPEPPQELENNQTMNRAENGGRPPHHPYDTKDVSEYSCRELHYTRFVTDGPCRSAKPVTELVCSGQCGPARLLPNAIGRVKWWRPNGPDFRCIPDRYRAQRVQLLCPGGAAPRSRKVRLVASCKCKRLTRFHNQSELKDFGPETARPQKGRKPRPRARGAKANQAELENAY

| Binder | binding result |
| --- | --- |
| B1 | no binding |
| B2 | no binding |
| B3 | no binding |
| B4 | no binding |
| B5 | no binding |
| B6 | no binding |
| B7 | no binding |
| B8 | no binding |
| B9 | no binding |
| B10 | no binding |

biological target: T3, recombinant human sclerostin (human, UniProt Q9BQB4 24-213); test: SPR
T3 construct: biotinylated in the ELISAs; also called hu sclerostin; hu scl
T3 sequence: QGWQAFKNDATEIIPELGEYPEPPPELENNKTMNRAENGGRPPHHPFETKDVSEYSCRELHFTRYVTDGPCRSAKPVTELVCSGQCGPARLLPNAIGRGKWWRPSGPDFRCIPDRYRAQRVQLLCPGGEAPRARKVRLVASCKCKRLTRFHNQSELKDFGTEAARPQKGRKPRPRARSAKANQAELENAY
Experimental: (§1) Approximately 10,000 RU (or 3000 RU when CM3 chip was used) of goat anti-mouse or anti-human IgG (Fcγ) fragment specific polyclonal antibody (Pierce Biotechnology Inc, Rockford, Ill.) diluted in 10 mM sodium acetate (pH 4.5) was directly immobilized across a CM5 (or CM3) research grade biosensor chip using a standard amine coupling kit according to manufacturer's instructions and procedures at 15 μg/ml. Unreacted moieties on the biosensor surface were blocked with ethanolamine. Modified carboxymethyl dextran surface in flowcells 2, 3 and 4 were used as a reaction surface. Modified carboxymethyl dextran in flow cell 1 was used as the reference surface. Biaevaluation T100 software version 2.0.2, GE Healthcare Life Sciences was used to simultaneously fit association and dissociation phases of all injections (using 1:1 fit analysis with local Rmax). Purified antibodies were diluted in running buffer for capture across goat anti-mouse or anti-human IgG specific reaction surfaces. Antibodies to be captured as a ligand (1 μg/ml) were injected over reaction matrices at a flow rate of 10 μl/minute. The association and dissociation rate constants, kon (unit M-1 s-1) and koff (unit s-1) were determined under a continuous flow rate of 50 μl/minute. […] At the end of each cycle the surfaces were regenerated with 10 s injection of 50 mM NaOH or/and by 10 s injection of 10 mM Glycine pH1.5 at a flow rate of 100 μl/min. Instrument appropriate Biaevaluation software, GE Healthcare Life Sciences was used to simultaneously fit association and dissociation constants as well as KD (using 1:1 global fit analysis with local Rₘₐₓ). Binding was recorded as a function of time and kinetic rate constants are calculated. In this assay, on-rates as fast as 10⁷ M⁻¹ s⁻¹ and off-rates as slow as 10⁻⁶ s⁻¹ can be measured.

| Binder | Kd [nM] | koff [s⁻¹] | kon [M⁻¹ s⁻¹] |
| --- | --- | --- | --- |
| B1 | 0.054 | 5.2e-06 | 96000 |
| B2 | 0.9 | 7.6e-05 | 84000 |
| B3 | 0.42 | 7.2e-05 | 170000 |
| B4 | 0.3 | 1.6e-05 | 52000 |
| B5 | 0.85 | 7.4e-05 | 88000 |
| B6 | 0.73 | 7.7e-05 | 110000 |
| B7 | 0.065 | 7.6e-06 | 120000 |
| B8 | 0.29 | 3.9e-05 | 130000 |
| B9 | 3.4 | 0.00055 | 170000 |
| B10 | 5.3 | 0.00073 | 140000 |

biological target: T4, recombinant cynomolgus monkey sclerostin (cynomolgus monkey); test: SPR
T4 construct: also called cyno sclerostin; Cyno sclerostin
Experimental: as §1

| Binder | Kd [nM] | koff [s⁻¹] | kon [M⁻¹ s⁻¹] |
| --- | --- | --- | --- |
| B2 | 1.3 | 0.0001 | 77000 |
| B4 | 0.42 | 2.3e-05 | 54000 |
| B7 | 0.77 | 8.8e-05 | 110000 |
| B10 | 5.6 | 0.00073 | 130000 |

biological target: T3, recombinant human sclerostin; test: SPR; remark: another data set of the same source
Experimental: as §1, with “The binding of antibodies or anti-sclerostin-TNF DVD to purified recombinant human, cynomolgus monkey (cyno), rat and mouse sclerostin and TNFα was determined by surface plasmon resonance-based measurements with a Biacore T100 or T200 instruments (GE Healthcare Life Sciences, Piscataway, N.J., USA) using running HBS-EP+ (10 mM HEPES [pH 7.4], 150 mM NaCl, 3 mM EDTA, and 0.005% surfactant P20) containing additional 150 mM NaCl, and/or 10 mg/ml carboxymethyl dextran, 0.1 mg/ml BSA at 25° C. All chemicals were obtained from GE Healthcare Life Sciences, Piscataway, N.J., USA or otherwise from a different source as described in the text. Approximately” for “Approximately”, “μl/min.” for “μl/min. Instrument appropriate Biaevaluation software, GE Healthcare Life Sciences was used to simultaneously fit association and dissociation constants as well as KD (using 1:1 global fit analysis with local Rₘₐₓ). Binding was recorded as a function of time and kinetic rate constants are calculated. In this assay, on-rates as fast as 10⁷ M⁻¹ s⁻¹ and off-rates as slow as 10⁻⁶ s⁻¹ can be measured.”

| Binder | Kd [nM] | koff [s⁻¹] | kon [M⁻¹ s⁻¹] |
| --- | --- | --- | --- |
| B11 | 0.0013 | 1.2e-05 | 9.1e+06 |
| B12 | 0.0003 | 2.1e-06 | 7.1e+06 |
| B13 | 0.0013 | 9.7e-06 | 7.4e+06 |

biological target: T4, recombinant cynomolgus monkey sclerostin; test: SPR; remark: another data set of the same source
Experimental: as §1, with “The binding of antibodies or anti-sclerostin-TNF DVD to purified recombinant human, cynomolgus monkey (cyno), rat and mouse sclerostin and TNFα was determined by surface plasmon resonance-based measurements with a Biacore T100 or T200 instruments (GE Healthcare Life Sciences, Piscataway, N.J., USA) using running HBS-EP+ (10 mM HEPES [pH 7.4], 150 mM NaCl, 3 mM EDTA, and 0.005% surfactant P20) containing additional 150 mM NaCl, and/or 10 mg/ml carboxymethyl dextran, 0.1 mg/ml BSA at 25° C. All chemicals were obtained from GE Healthcare Life Sciences, Piscataway, N.J., USA or otherwise from a different source as described in the text. Approximately” for “Approximately”, “μl/min.” for “μl/min. Instrument appropriate Biaevaluation software, GE Healthcare Life Sciences was used to simultaneously fit association and dissociation constants as well as KD (using 1:1 global fit analysis with local Rₘₐₓ). Binding was recorded as a function of time and kinetic rate constants are calculated. In this assay, on-rates as fast as 10⁷ M⁻¹ s⁻¹ and off-rates as slow as 10⁻⁶ s⁻¹ can be measured.”

| Binder | Kd [nM] | koff [s⁻¹] | kon [M⁻¹ s⁻¹] |
| --- | --- | --- | --- |
| B11 | 0.00088 | 7e-06 | 7.9e+06 |
| B12 | < 0.00014 | < 1e-07 | 7e+06 |
| B13 | 0.00039 | 3e-06 | 7.7e+06 |

biological target: T1, recombinant mouse sclerostin; test: SPR; remark: another data set of the same source
Experimental: as §1, with “The binding of antibodies or anti-sclerostin-TNF DVD to purified recombinant human, cynomolgus monkey (cyno), rat and mouse sclerostin and TNFα was determined by surface plasmon resonance-based measurements with a Biacore T100 or T200 instruments (GE Healthcare Life Sciences, Piscataway, N.J., USA) using running HBS-EP+ (10 mM HEPES [pH 7.4], 150 mM NaCl, 3 mM EDTA, and 0.005% surfactant P20) containing additional 150 mM NaCl, and/or 10 mg/ml carboxymethyl dextran, 0.1 mg/ml BSA at 25° C. All chemicals were obtained from GE Healthcare Life Sciences, Piscataway, N.J., USA or otherwise from a different source as described in the text. Approximately” for “Approximately”, “μl/min.” for “μl/min. Instrument appropriate Biaevaluation software, GE Healthcare Life Sciences was used to simultaneously fit association and dissociation constants as well as KD (using 1:1 global fit analysis with local Rₘₐₓ). Binding was recorded as a function of time and kinetic rate constants are calculated. In this assay, on-rates as fast as 10⁷ M⁻¹ s⁻¹ and off-rates as slow as 10⁻⁶ s⁻¹ can be measured.”

| Binder | Kd [nM] | koff [s⁻¹] | kon [M⁻¹ s⁻¹] |
| --- | --- | --- | --- |
| B11 | 0.027 | 0.00087 | 3.2e+07 |
| B12 | 0.0093 | 0.00012 | 1.3e+07 |
| B13 | 0.0074 | 8.2e-05 | 1.1e+07 |

biological target: T2, recombinant rat sclerostin; test: SPR; remark: another data set of the same source
Experimental: as §1, with “The binding of antibodies or anti-sclerostin-TNF DVD to purified recombinant human, cynomolgus monkey (cyno), rat and mouse sclerostin and TNFα was determined by surface plasmon resonance-based measurements with a Biacore T100 or T200 instruments (GE Healthcare Life Sciences, Piscataway, N.J., USA) using running HBS-EP+ (10 mM HEPES [pH 7.4], 150 mM NaCl, 3 mM EDTA, and 0.005% surfactant P20) containing additional 150 mM NaCl, and/or 10 mg/ml carboxymethyl dextran, 0.1 mg/ml BSA at 25° C. All chemicals were obtained from GE Healthcare Life Sciences, Piscataway, N.J., USA or otherwise from a different source as described in the text. Approximately” for “Approximately”, “μl/min.” for “μl/min. Instrument appropriate Biaevaluation software, GE Healthcare Life Sciences was used to simultaneously fit association and dissociation constants as well as KD (using 1:1 global fit analysis with local Rₘₐₓ). Binding was recorded as a function of time and kinetic rate constants are calculated. In this assay, on-rates as fast as 10⁷ M⁻¹ s⁻¹ and off-rates as slow as 10⁻⁶ s⁻¹ can be measured.”

| Binder | Kd [nM] | koff [s⁻¹] | kon [M⁻¹ s⁻¹] |
| --- | --- | --- | --- |
| B11 | 0.098 | 0.00018 | 1.9e+06 |
| B12 | 0.026 | 4.6e-05 | 1.8e+06 |
| B13 | 0.034 | 5.9e-05 | 1.8e+06 |
